The source of these data is patent US12723105 (dated 2026).

For assay [1], the target named is PD-L1 on PD-L1-expressing APC/CHO-K1 cells (UniProt Q9NZQ7 19-290). Briefly: flow cytometry, PD-L1 CHO cells; HCAb. In general terms: A flow cytometer gives signals particle by particle.
The target of assay [2] is Human serum albumin (UniProt P02768 25-609). The assay can be described thus: Octet BLI. A general note: BLI is a label-free optical method that tracks binding on a fibre tip over time.
Assay [3] concerns the target T1, CD47 natively expressed on tumor cell surface (Jurkat, HL60 cells) (human, UniProt Q08722 19-323). Briefly: flow cytometry; HL-60 cells.
Assay [4] has as its target CD47-Fc (R&D systems) (UniProt Q08722 19-139). The assay can be described thus: competitive ELISA vs SIRPα.
The target of assay [5] is T1, CD47 natively expressed on tumor cell …. The assay can be described thus: competitive flow cytometry vs SIRPα-Fc; Jurkat cells.
Assay [6] has as its target human CD47 (R & D systems) (UniProt Q08722 19-139). The assay can be described thus: flow cytometry, CD47-overexpressing cells; HCAb.

Sequence of PD-L1 on PD-L1-expressing APC/CHO-K1 cells (Q9NZQ7 19-290): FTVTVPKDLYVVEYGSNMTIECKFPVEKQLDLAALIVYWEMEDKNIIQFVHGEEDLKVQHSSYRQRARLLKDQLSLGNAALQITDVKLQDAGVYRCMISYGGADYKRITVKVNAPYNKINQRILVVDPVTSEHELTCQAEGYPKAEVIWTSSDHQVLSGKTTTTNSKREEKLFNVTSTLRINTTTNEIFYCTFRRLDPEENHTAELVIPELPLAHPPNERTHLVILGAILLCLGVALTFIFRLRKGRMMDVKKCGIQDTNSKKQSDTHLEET

B1: PL16 (antibody, V domains shown)
VH: QVQLVESGGGLVQAGGSLRLSCAFSGGTFLTYSLGWFRQGPGKEREFVASINWSGYMTSYVDSVKGRFTISRDNAKNTVYLQMNSLKPEDTALYYCAAARTAIAAKRSSEFDYWGQGAQVTVSS
On to B1, for which the EC50 – broadly, the concentration that produces a half-maximal response – in assay [1] worked out at 1.78 nM.

B2: PL14 (antibody, V domains shown)
VH: EVQLVESGGGLVQAGGSLRLSCAASGSTSGIYDMGWYRQAPGKLREVVGIITSGGTTNYADFAKGRFTISRDNAKNMMYLQMNSLKPEDTAVYYCNIRTRLIIWGQGTQVTVSS
As for B2, in assay [1], the EC50 was found to be 2.09 nM.

B3: HS27 (VHH)
VHH: EVQLVESGGGLVQPGGSLRLSCAASGRTFSPYTMGWFRQASGKERESVAATTWTGSRSYYGESVKGRFTISRDSTKNTMSLQMNSLKPEDTAVYYCAAADGAGLYTNRGQYDYWGQGTQVTVSS
As to B3, the Kd (commonly a measure of binding affinity in units of concentration) in assay [2] was found to be 1.14 nM.

B4: multi-specific molecule 3321 (CD16F1-L1-hHS10-L1-hA09-10-3-L3-hA09-10-4-L1-H33-14-L3-H33-14) (other)
chain: EVQLVESGGGLVQPGGSLRLSCAVSGSLFSARVMGWYRQAPGKQRELVAAITSGVRTDYADSVKGRFTISRDNAKRAVYLQMNSLKPEDTAVYYCNVNLYNTGNYWGQGTQVTVSSGGGGSGGGSEVQLVESGGGLVQPGGSLRLSCAASGSTDSAYRMGWFRQAPGKEREFVSAINWSDGRTYYADSVKGRFTISRDNSKNTLYLQMNSLRAEDTAVYYCAADPDSRLYYTVPQNYDYWGQGTLVTVSSGGGGSGGGSEVQLVESGGGLVQPGGSLRLSCAASGGGRTFSNYALGWFRQAPGKEREFVAAISRSGGNINYADSVKGRFTISRDNFKNTVYLQMSSLRAEDTAVYYCAAHYLLLPSYISTSTNMYNYWGQGTQVTVSSAAAQVQLVESGGGLVQPGGSLRLSCAASGGGRTFSNYALGWFRQAPGKEREFVAAISRSGGNINYADSVKGRFTISRDNAKNTVYLQMSSLRAEDTAVYYCAAHYLLLPSYISTSTNMYNYWGQGTQVTVSSGGGGSGGGSQVQLVESGGGLVQPGGSLRLSCAASGRTSLILAMAWWRQAPGKEREFAGRIWWNNDMTRYSDSVKGRFTISRDNAKNTVYLQMSSLRAEDTAVYYCEADLIGGSRGWGQGTLVTVSSAAAQVQLVESGGGLVQPGGSLRLSCAASGRTSLILAMAWWRQAPGKEREFAGRIWWNNDMTRYSDSVKGRFTISRDNAKNTVYLQMSSLRAEDTAVYYCEADLIGGSRGWGQGTLVTVSS
As to B4, in assay [3], the response was half-maximal at 0.182 nM (EC50). Moreover, the IC50 – broadly, the concentration at which inhibition is half-maximal – in assay [4] stood at 0.267 nM; in assay [5] it was 0.935 nM.

B5: multi-specific molecule 1511 (CD16F1-L1-hHS10-L1-hA09-10-2-L3-A09-10-L1-hPL16-L3-hPL16) (bispecific antibody)
chain: EVQLVESGGGLVQPGGSLRLSCAVSGSLFSARVMGWYRQAPGKQRELVAAITSGVRTDYADSVKGRFTISRDNAKRAVYLQMNSLKPEDTAVYYCNVNLYNTGNYWGQGTQVTVSSGGGGSGGGSEVQLVESGGGLVQPGGSLRLSCAASGSTDSAYRMGWFRQAPGKEREFVSAINWSDGRTYYADSVKGRFTISRDNSKNTLYLQMNSLRAEDTAVYYCAADPDSRLYYTVPQNYDYWGQGTLVTVSSGGGGSGGGSEVQLVESGGGLVQPGGSLRLSCAASGGGRTFSNYALGWFRQAPGKEREFVAAISRSGGNINYADSVKGRFTISRDNFKNTTYLQMSSLEPEDTAVYYCAAHYLLLPSYISTSTNMYNYWGQGTQVTVSSAAAQVQLVESGGGLVQAGGSLRLSCAASGGGRTFSNYALGWFRQAPGKEREFVAAISRSGGNINYADSVKGRFTISRDNFKNTTYLQMSSLEPEDTAVYYCAAHYLLLPSYISTSTNMYNYWGQGTQVTVSSGGGGSGGGSEVQLVESGGGLVQPGGSLRLSCAASGGTFLTYSMSWVRQAPGKEREFVSSINWSGYMTYYADSVKGRFTISRDNSKNTLYLQMNSLRAEDTAVYYCAAARTAIAAKRSSEFDYWGQGTQVTVSSAAAEVQLVESGGGLVQPGGSLRLSCAASGGTFLTYSMSWVRQAPGKEREFVSSINWSGYMTYYADSVKGRFTISRDNSKNTLYLQMNSLRAEDTAVYYCAAARTAIAAKRSSEFDYWGQGTQVTVSS
In assay [3], B5 displayed an EC50 of 26.2 nM. The IC50 in assay [4] is 0.453 nM; in assay [5], 1.28 nM.

B6: A09-10 (antibody, V domains shown)
VH: QVQLVESGGGLVQAGGSLRLSCAASGGGRTFSNYALGWFRQAPGKEREFVAAISRSGGNINYADSAKGRFTISRDNFKNTTYLQMSSLKPEDTAVYYCAAHYLLLPSYISTSTNMYNYWGQGTQVTVSS
For the molecule B6, in assay [6], the EC50 stood at 0.36 nM.
